This passage reports Kd results from patent US20250059282A1 (University of Texas, published 2025).

One may read the Kd as the concentration at which binding is half-saturated. Read a high Kd as lower affinity.

Test [1] has as its target T1, Human PD-L2-HIS (human, UniProt Q9BQ51 20-220).
T1 construct: also called His-tagged human PD-L2; not shown: His tag
T1 sequence: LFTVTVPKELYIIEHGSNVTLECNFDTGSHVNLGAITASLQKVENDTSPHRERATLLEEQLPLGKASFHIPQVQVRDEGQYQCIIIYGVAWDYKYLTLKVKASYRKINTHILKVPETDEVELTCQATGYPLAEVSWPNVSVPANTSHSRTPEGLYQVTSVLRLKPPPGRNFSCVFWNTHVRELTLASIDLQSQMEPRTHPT
The experiment in a line: ForteBio Octet, IgG, monovalent. On the technique in general: In BLI a coated tip is dipped into the sample, and binding shifts an interference pattern.

Test [2] concerns the target T1, Human PD-L2-HIS. The experiment in a line: ForteBio, IgG, monovalent.
For test [3], the target named is T2, Human PD-L1-HIS (human, UniProt Q9NZQ7 19-238).
T2 construct: also called HIS-tagged monovalent PD-L1; His-tagged human PD-L1; not shown: His tag
T2 sequence (Q9NZQ7 19-238 limits assumed): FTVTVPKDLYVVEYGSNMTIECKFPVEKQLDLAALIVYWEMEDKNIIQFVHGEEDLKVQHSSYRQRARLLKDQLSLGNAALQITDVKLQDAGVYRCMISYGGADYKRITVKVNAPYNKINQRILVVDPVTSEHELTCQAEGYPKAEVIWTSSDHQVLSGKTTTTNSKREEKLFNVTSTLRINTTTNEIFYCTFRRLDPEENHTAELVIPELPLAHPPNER
The experiment in a line: ForteBio, IgG, monovalent.

Test [4] addresses T2, Human PD-L1-HIS. The experiment in a line: ForteBio Octet, IgG; column head says Avid.
Test [5] concerns the target T3, Mouse PD-L2-Fc (mouse, UniProt Q9WUL5 20-219, limits assumed).
T3 construct: also called murine PD-L2; not shown: Fc
T3 sequence (looked up): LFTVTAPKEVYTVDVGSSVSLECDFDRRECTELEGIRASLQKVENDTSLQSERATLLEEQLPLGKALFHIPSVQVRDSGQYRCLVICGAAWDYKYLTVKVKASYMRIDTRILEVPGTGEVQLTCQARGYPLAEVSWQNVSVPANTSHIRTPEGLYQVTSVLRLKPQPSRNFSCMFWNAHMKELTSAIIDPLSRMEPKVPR
In words: ForteBio, IgG, avid.

Test [6] concerns the target T4, Cyno PD-L2-Fc (cynomolgus, UniProt A0A2K5U5Z4 20-220).
T4 construct: also called cynomolgus PD-L2; not shown: Fc
T4 sequence: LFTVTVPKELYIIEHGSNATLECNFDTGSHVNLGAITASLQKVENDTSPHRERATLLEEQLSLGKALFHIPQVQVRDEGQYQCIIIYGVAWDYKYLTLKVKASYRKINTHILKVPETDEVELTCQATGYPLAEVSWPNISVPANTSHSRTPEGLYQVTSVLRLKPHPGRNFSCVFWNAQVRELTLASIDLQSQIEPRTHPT
The experiment in a line: ForteBio, IgG, avid.

Test [7] concerns the target T5, Cyno PD-L1-Fc (cynomolgus, UniProt G7PSE7 19-238).
T5 construct: also called cynomolgus PD-L1
In words: ForteBio, IgG, avid.

Test [8] concerns the target T6, Mouse PD-L1-Fc (mouse, UniProt Q9EP73 19-239, limits assumed).
T6 construct: also called murine PD-L1; not shown: Fc
In words: ForteBio, IgG, avid.

The target in test [9] is T3, Mouse PD-L2-Fc. In words: ForteBio Octet, IgG, avid.
The target in test [10] is T4, Cyno PD-L2-Fc. In words: ForteBio Octet, IgG, avid.
The target in test [11] is T5, Cyno PD-L1-Fc. In words: ForteBio Octet, IgG, avid.
The target of test [12] is T6, Mouse PD-L1-Fc. In words: ForteBio Octet, IgG, avid.

T6 sequence (Q9EP73 19-239 limits assumed): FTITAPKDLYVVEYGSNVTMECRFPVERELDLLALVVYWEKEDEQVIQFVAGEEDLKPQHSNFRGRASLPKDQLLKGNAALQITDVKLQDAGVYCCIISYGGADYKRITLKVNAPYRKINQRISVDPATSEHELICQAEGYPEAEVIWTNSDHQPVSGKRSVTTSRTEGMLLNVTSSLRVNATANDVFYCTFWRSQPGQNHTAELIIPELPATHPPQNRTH
T5 sequence (G7PSE7 entry or part of it limits assumed): as the sequence (Q9NZQ7 19-238 limits assumed) above, with A33T, A34S, S62N, R68Q, Q82R, F173L, T185A, T192I, H215L counted along it

B1: BiPDL4-34 (antibody, V domains shown)
VH: QVQLVESGGGVIQPGRSLRLSCAASGFTFSAYLMHWVRQAPGKGLEWVAAIGYDGMNKYYADSVKGRFTISRDNSKNTLYLQMNSLRAEDTAVYYCARAGIEYSYAYTDYWGQGTLVTVSS
VL: EIVLTQSPGTLSLSPGERATLSCRASQFVYSSDLAWYQQKPGQAPRLLIYGASARAAGIPDRFSGSGSGTDFTLTISRLEPEDFAVYYCMQFGWWPPRTFGGGTKVEIK
notes: Fourth generation, IgG
As to B1, the Kd was 0.932 nM in the test with Human PD-L2-HIS [1]; 0.932 nM with Human PD-L2-HIS [2]; 6.85 nM with Human PD-L1-HIS [3]; 2.17 nM with Human PD-L1-HIS [4]; 5.69 nM in the test with Mouse PD-L2-Fc [5]; 0.739 nM with Cyno PD-L2-Fc [6]. The Kd in the test with Cyno PD-L1-Fc [7] is 0.408 nM; in the test with Mouse PD-L1-Fc [8], 0.544 nM; with Mouse PD-L2-Fc [9], 5.69 nM; with Cyno PD-L2-Fc [10] it was 0.739 nM; with Cyno PD-L1-Fc [11] it was 0.408 nM; with Mouse PD-L1-Fc [12] it was 0.544 nM.
